± gives the standard deviation of the averaged measurements.

The text below walks through data of the supplement of paper PMC10126150.
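Also: ATP exposure 15 min at 22 °C before imaging.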

The data set has as its system ATP. As to the kind of experiment: switch fluorescence ratio, 500 uM ATP over buffer (Cy3 cluster intensity, sum of 5 cycles each) (fold (ratio)); higher = stronger signal-on switching upon ATP binding; sequences stand for … in TCGTCGGCAGCGTCAGATGTGTATAAGAGACAGTTTTTTTTTTTTTTTTTTTTTTTTT…TC. To be noted: aptamer strand: ATP DNA aptamer (quencher-CACCTGGGGGAGTATTGCGGAGGAAGG + anchor), 100 nM annealed; ATP concentration: 500 uM. In short, it runs like this:
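The quencher-labelled ATP aptamer, at 100 nM, was annealed to Cy3-labelled switching-strand clusters on a modified Illumina MiSeq flow-cell. The clusters were imaged in selection buffer, then after 15 min with 500 uM ATP at 22 °C, and this buffer/ATP cycle ran five times with NaOH stripping and re-annealing between runs. Per-cluster fluorescence ratios, summed target-cycle over summed buffer-cycle Cy3 intensity, were averaged per switch-domain sequence. Clusters outside 100-1000 RFU were excluded.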
For GCCGAAGTCG, the switch fluorescence ratio amounted to 1.02 ± 0.025.
As for AAGCTGATCT, the switch fluorescence ratio was 1.016 ± 0.0071.
The result for TCGGTGATGG reads 0.988 ± 0.021; that for CGCAGGTTTG, 1.03 ± 0.011.
Under TGATTCTTTT stands 0.974 ± 0.037; under TTAAATGAAA, 1.02 ± 0.013.
For the sequence GGTCTTGTTT, the switch fluorescence ratio worked out at 0.9891 ± 0.0078.
Under TTAAAAATTG stands 0.957 ± 0.016.
The result for ATTATGCTGG reads 0.994 ± 0.026; that for GCCTGGTTGT, 1.02 ± 0.013; that for CCGAGTGGGT, 1.44 ± 0.57.
The result for TTCTAGTGGG reads 1 ± 0.033.
In the case of TTCAATCCCG, the switch fluorescence ratio was found to be 0.991 ± 0.069.
The result for GTGGTGGCAG reads 0.979 ± 0.015.
AGCGTATGTG: the switch fluorescence ratio was found to be 1.02 ± 0.062.
The result for CCGATGGGGG reads 1.01 ± 0.025.
Under CCGGGAGTTG stands 1.01 ± 0.024; under TGGTTAGGGG, 1.06 ± 0.084; under TAGTCATGCG, 1.04 ± 0.026.
Consider GCTAATATTA, for which the switch fluorescence ratio was determined as 1.03 ± 0.021.
In the case of TCTGAGTTTG, the switch fluorescence ratio turned out to be 0.993 ± 0.038.
As to TGCTGTCGGC, the switch fluorescence ratio is 1.03 ± 0.029.
The result for AATGGGAAAT reads 0.968 ± 0.059; that for GCTGGGGAAA, 0.996 ± 0.032; that for GGGGGTTCTT, 1.01 ± 0.049.
The result for GCTGGACTCG reads 1.053 ± 0.0015.
The result for TATAAAAGAA reads 1.04 ± 0.053; that for GTAAGTAAAA, 1.03 ± 0.089; that for TATGGTTTAG, 1.02 ± 0.015.
As to TTTACAAATT, the switch fluorescence ratio amounted to 1 ± 0.02.
The result for ATTCTGGGAT reads 1.013 ± 0.0027; that for CGGTAGAGGG, 0.982 ± 0.037; that for AAGTTGGGCT, 1.01 ± 0.025.
AGGTGTTATG: the switch fluorescence ratio was found to be 1.03 ± 0.051.
Under CGGCATGGAG stands 0.996 ± 0.025; under GTGGTAAGCG, 0.995 ± 0.065.
Under TTCAGTTTGG stands 1.01 ± 0.038; under GTGATAAGAC, 1.042 ± 0.0085.
Under ATAGGATCGC stands 0.99 ± 0.039; under ATGAGGGG, 1.01 ± 0.043.
As to AGAATTTTAG, the switch fluorescence ratio turned out to be 1.01 ± 0.016.
In the case of TTGGGTAAGG, the switch fluorescence ratio turned out to be 0.993 ± 0.029.
The result for GGTGCTAGAA reads 0.9789 ± 0.0083.
The result for GGTAAACGGA reads 1.02 ± 0.044.
Turning to GTGGTAGGCG, the switch fluorescence ratio worked out at 0.975 ± 0.014.
Under GATGGTGGGG stands 0.977 ± 0.035.
For the sequence AATTATCATC, the switch fluorescence ratio amounted to 1.02 ± 0.013.
Regarding TTGGGCCGCT, the switch fluorescence ratio amounted to 0.974 ± 0.1.
Under GAGTGGAAGC stands 0.964 ± 0.051; under AGACCACTTG, 1.036 ± 0.0069.
In the case of TGGCGTTGAT, the switch fluorescence ratio was 0.984 ± 0.019.
The result for TACTTCTCCA reads 1.04 ± 0.016; that for TCAGATATAC, 1.581 ± 0.0082; that for TTCGCGTAGA, 1.01 ± 0.014.
Consider ACAGGGCTAT, for which the switch fluorescence ratio was determined as 1.02 ± 0.014.
As to TAGATGCATG, the switch fluorescence ratio was found to be 1 ± 0.031.
Regarding ATTTGCGTTC, the switch fluorescence ratio came to 1.01 ± 0.056.
Under TTACAAAGGA stands 0.999 ± 0.017; under TGTAGCAGCG, 1.1 ± 0.16; under ATGGAGAACT, 0.976 ± 0.024.
Under AATTTGTAGA stands 0.9996 ± 0.0047; under ATAATTTTCA, 1.01 ± 0.03; under TTGTCGCGTA, 1.01 ± 0.07.
Under AACTGAGACT stands 1.02 ± 0.032; under TTGGTTTATG, 0.993 ± 0.045.
Take TAAAAAAATA: the switch fluorescence ratio is 0.971 ± 0.0079.
Consider GGGGAAGCCT, for which the switch fluorescence ratio was 1.07 ± 0.03.
TTTTAGCATT: the switch fluorescence ratio came out at 0.992 ± 0.062.
Under TTGGCCGTAC stands 1.03 ± 0.029.
The result for GAGGGGGTCA reads 1.02 ± 0.029.
For GAGAATGGGG, the switch fluorescence ratio was 0.983 ± 0.024.
Turning to GATGGCTACG, the switch fluorescence ratio worked out at 1.01 ± 0.024.
The result for ACAAGTTCAG reads 0.993 ± 0.023; that for GGTTCTACAT, 0.998 ± 0.03.
Turning to TGCTATCATC, the switch fluorescence ratio amounted to 0.989 ± 0.02.
The result for GGCCTCAAGG reads 1.06 ± 0.04.
Under GGATTAGGGT stands 0.975 ± 0.019; under GGGGTTGTAG, 0.993 ± 0.047.
Under TATTGAGAGA stands 1.02 ± 0.053.
